From patent publication US20180142030A1 (Bristol-Myers Squibb, published 2018)
Residue numbers refer to the chain shown, from its start. Names and notes keep the numbering of the source.

B1: 5F11-17 (antibody, human IgG1, kappa)
heavy: not shown
light: DIVMTQSPDSLAVSLGERATINCRASKNVDSYGNSFMHWYQQKPGQPPKLLIYRASNLESGVPDRFSGSGSGTDFTLTISSLQAEDVAVYYCQQSNEDPLTFGQGTKLEIKRTVAAPSVFIFPPSDEQLKSGTASVVCLLNNFYPREAKVQWKVDNALQSGNSQESVTEQDSKDSTYSLSSTLTLSKADYEKHKVYACEVTHQGLSSPVTKSFNRGEC
notes: Humanized; IgG1f
B2: 5F11-23 (antibody, human IgG1, kappa)
heavy: not shown
light: B1 light with M4L, N22S
notes: Humanized; IgG1f
B3: 5F11-45 (antibody, human IgG1, kappa)
heavy: not shown
light: B1 light with M4L
notes: Humanized; IgG1f
B4: 12D6 (parental) (antibody, V domains shown)
VH: EVQLQQSGPELEKPGASVKMSCKASGYSFTGYNMNWVKQSNGKSLEWIGNIDPYYGNTNYNQKFKGKATLTVDKSSSTAYLQLKSLTSEDSAVYYCARLGLQLYAMDYWGQGTSVTVSS
VL: DVVMTQTPLSLPVSLGDQASISCRSSQSLVHSNGNTYLHWYLQKPGQSPNLLIYKLTNRFFGVPDRFSGSGSGTDFTLKISRVEAEDLGVYFCSQSIHVPWTFGGGTKLEIK
notes: Mouse variable domains; also called 1802.3716.12D6.B1.E3; mAb 12D6
B5: 8E8 (parental) (antibody, V domains shown)
VH: QVQFQQSGAELARPGASVKLSCKASGYTFTSYWMQWVKQRPGQGLEWIGTIYPGDGDSRYNQKFKGKALLTADKSSSIAYMQLNSLASEDSAVYFCARFSLYDGYPYYFDYWGQGTTLTVSS
VL: B4 VL with S32R, N50K, K55R, L56V, T57S, F61S, V90I, I97T, V99F, W101Y
notes: Mouse variable domains; also called 1802.3583.8E8.C10.G2; mAb 8E8
B6: 12D6-03 (antibody, human IgG1, kappa, V domains shown)
VH: QVQLVQSGAEVKKPGASVKVSCKASGYTFTGYNMNWVRQAPGQGLEWMGNIDPYYGNTNYNQKFKGRVTMTTDTSTSTAYMELRSLRSDDTAVYYCARLGLQLYAMDYWGQGTTVTVSS
VL: DIVMTQTPLSLPVTPGEPASISCRSSQSLVHSNGNTYLHWYLQKPGQSPQLLIYKLTNRFFGVPDRFSGSGSGTDFTLKISRVEAEDVGVYYCSQSIHVPWTFGGGTKVEIKR
notes: Humanized
B7: 8E8-62 (antibody, human IgG1, kappa, V domains shown)
VH: QVQFVQSGAEVKKPGSSVKVSCKASGYTFTSYWMQWVRQAPGQGLEWMGTIYPGDGDSRYNQKFKGKALLTADKSTSTAYMELSSLRSEDTAVYYCARFSLYEGYPYYFDYWGQGTTVTVSS
VL: B6 VL with T7S, S32R, K55R, L56V, T57S, F61S, I97T, V99F, W101Y
notes: Humanized; IgG1f
B8: 19G3-11 (antibody, human IgG1, kappa, V domains shown)
VH: EVQLVESGGGLVKPGGSLRLSCAASGFTFSSYAMSWVRQAPGKGLEWVSEISGGGSYTYYPDTVTGRFTISRDNAKNSLYLQMNSLRAEDTAVYYCASRAYWGQGTLVTVSS
VL: B6 VL with L29I, L38F, H39E, L56V, T57S, F61S, S94F, S96G, I97S, W101Y
notes: Humanized; IgG1f
B9: 12D6-24 (antibody, human IgG1, kappa)
heavy: not shown
light: DIVMTQTPLSLPVTPGEPASISCRSSQSLVHSNANTYLHWYLQKPGQSPQLLIYKLTNRFFGVPDRFSGSGSGTDFTLKISRVEAEDVGVYYCSQSIHVPWTFGGGTKVEIKRTVAAPSVFIFPPSDEQLKSGTASVVCLLNNFYPREAKVQWKVDNALQSGNSQESVTEQDSKDSTYSLSSTLTLSKADYEKHKVYACEVTHQGLSSPVTKSFNRGEC
notes: Humanized; IgG1f; also called 12D6-24 IgG1f; mAb 12D6-24 human IgG1f (control)
B10: 8E8-66 (antibody, human IgG1, kappa, V domains shown)
VH: B7 VH with E103D
VL: B6 VL with T7S, S32R, G34A, K55R, L56V, T57S, F61S, I97T, V99F, W101Y
B11: 12D6-23 (antibody, human IgG1, kappa, V domains shown)
VH: B6 VH with M106L
VL: B6 VL
notes: Humanized; IgG1f
B12: 8E8-56 (antibody, human IgG1, kappa, V domains shown)
VH: B7 VH with E103D
VL: B6 VL with T7S, S32R, K55R, L56V, T57S, F61S, I97T, V99F, W101Y
notes: Humanized; IgG1f
B13: 12D6-22 (antibody, human IgG1, kappa, V domains shown)
VH: B6 VH
VL: B6 VL with G34A
notes: Humanized; IgG1f
B14: 8E8-67 (antibody, human IgG1, kappa, V domains shown)
VH: B7 VH
VL: B6 VL with T7S, S32R, G34A, K55R, L56V, T57S, F61S, I97T, V99F, W101Y
notes: Humanized; IgG1f
B15: 8E8-71 (antibody, human IgG1, kappa, V domains shown)
VH: B7 VH with G56S
VL: B6 VL with T7S, S32R, G34A, K55R, L56V, T57S, F61S, I97T, V99F, W101Y
notes: Humanized; IgG1f
B16: 8E8-70 (antibody, human IgG1, kappa, V domains shown)
VH: B7 VH with G56S
VL: B6 VL with T7S, S32R, K55R, L56V, T57S, F61S, I97T, V99F, W101Y
notes: Humanized; IgG1f
B17: 19G3-23 (antibody, human IgG1, kappa, name in Kabat numbering, V domains shown)
VH: B8 VH
VL: DIVMTQTPLSLPVTPGEPASISCRSSQSIVHSNANTYFEWYLQKPGQSPQLLIYKVSNRFSGVPDRFSGSGSGTDFTLKISRVEAEDVGVYYCFQGSHVPYTFGGGTKVEIKR
notes: Heavy chain inferred from the identical VH description (VH3-21 S94R) of 19G3-11; Light chain is the VKII O11 CDR graft of 19G3-11 with G29A
B18: 19G3-22 (antibody, human IgG1, kappa, V domains shown)
VH: B8 VH
VL: B17 VL with N33Q, A34G
notes: Humanized; IgG1f
B19: 19G3 (parental) (antibody, V domains shown)
VH: EVQLVESGGGLVKPGGSLKLSCAASGFTFSSYAMSWVRQSPEKRLEWVAEISGGGSYTYYPDTVTGRFTISRDNAKNTLYLEMSSLRSEDTAMYYCASRAYWGQGTLVTVSA
VL: DVLMTQTPLSLPVSLGDQASISCRSSQSIVHSNGNTYFEWYLQKPGQSPKLLIYKVSNRFSGVPDRFSGSGSGTDFTLKISRVEAEDLGVYYCFQGSHVPYTFGGGTKLEIK
notes: Mouse variable domains; also called 1802.3582.19G3.F10.E1; mAb 19G3
B20: 5G7 (parental) (antibody, V domains shown)
VH: EVLLQQSGPELVKPGASVKIPCKASGYKFTDYNMDWVKQSHGKSLEWIGDINPKNGGTIYNLKFKGKATLTVDMSSSTAYMELRSLTSEDTAVYYCVRRMDYWGQGTSVTVSS
VL: DIQMTQTTSSLSASLGDRVTISCRASQDISNYLNWYQQKPDGTVKLLIYYISRLHSGVPSRFRGSGSGTDFSLTISNLEQEDIATYFCQQGNTLPYTFGGGTNLEIK
notes: Mouse variable domains; also called 1802.3583.5G7.F12.G3; mAb 5G7
B21: 5G7-25 (antibody, human IgG1, kappa, V domains shown)
VH: QVQLVQSGAEVKKPGASVKVSCKASGYTFTDYNMDWVRQAPGQGLEWMGDINPKNAGTIYNLKFKGRVTLTVDTSTSTAYMELRSLRSDDTAVYYCVRRMDYWGQGTTVTVSS
VL: DIQMTQSPSSLSASVGDRVTITCRASQDISNYLNWYQQKPGKVPKLLIYYISRLHSGVPSRFSGSGSGTDFTLTISSLQPEDVATYYCQQGNTLPYTFGGGTKVEIKR
notes: Humanized; IgG1f
B22: 5G7-28 (antibody, human IgG1, kappa, name in Kabat numbering, V domains shown)
VH: B21 VH with M100L
VL: B21 VL
B23: 5G7-22 (antibody, human IgG1, kappa, V domains shown)
VH: B21 VH with A56G, V72T
VL: B21 VL
notes: Humanized; IgG1f

target: T1, recombinant human CD40 monomer (human, UniProt P25942 21-193); test: BLI (Octet RED); antibody supernatant captured on protein A sensors, huCD40-monomer in solution
T1 construct: also called huCD40-monomer; soluble human CD40
Excerpt: The closest matching human germline region sequence was selected for each mouse variable domain, and these human framework regions were used to replace murine frameworks in the “CDR graft” versions of the antibodies. Additional amino acid substitutions, such as framework back-mutations, were then made as necessary to restore the binding affinity of the humanized antibody. Further amino acid substitutions were made to eliminate sequence liabilities. The sequence relationships between the various forms of the antibodies of the present invention are provided at Table 6. The binding of various agonistic anti-huCD40 antibodies to soluble human CD40 was determined by Biolayer Interferometry (BLI) analysis using a Fortebio Octet RED (Rapid system—Extended Detection) label-free interaction analysis instrument. All studies were performed in 10 mM NaₓPO₄, 130 mM NaCl, 0.05% Surfactant P20 (pH 7.1) at 25° C. Briefly, anti-huCD40 antibody supernatants (diluted to 10 μg/ml or captured undiluted if supernatant concentration was less than 10 μg/ml) were captured on protein A coated biosensors (Pall Fortebio #18-5010) using a loading time of 90 s and shake speed of 1000 rpm. Supernatants were first screened for binding to 1 μM recombinant human CD40 monomer (huCD40-monomer) using 180 s association and dissociation times, at 1000 rpm, with two 15 s conditioning steps using 10 mM glycine pH 1.5 in between binding cycles.

T1 sequence (P25942 21-193 limits assumed): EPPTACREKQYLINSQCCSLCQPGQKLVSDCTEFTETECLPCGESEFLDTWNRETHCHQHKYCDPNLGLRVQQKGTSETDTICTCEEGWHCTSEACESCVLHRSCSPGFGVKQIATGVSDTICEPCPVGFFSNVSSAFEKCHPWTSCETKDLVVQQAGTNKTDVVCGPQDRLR

Kd	binding result	Binder
8.4 nM	–	B1
4.9 nM	–	B2
12.3 nM	–	B3
3.6 nM	–	B4
85 nM	–	B5
4.8 nM	–	B6
31 nM	–	B7
850 nM	–	B8
5.6 nM	–	B9
82 nM	–	B10
4.3 nM	–	B11
82 nM	–	B12
3.6 nM	–	B13
28 nM	–	B14
–	binds	B15
–	binds	B16
1300 nM	–	B17
99 nM	–	B18
870 nM	–	B19
89 nM	–	B20
69 nM	–	B21
230 nM	–	B22
50 nM	–	B23
